Measured values from patent publication US11180762B2, “Methods and compositions for the treatment of cancer” (CHILDREN'S MEDICAL CENTER CORPORATION, priority 2014, dated 2021).
Entries after “also recorded” stand apart in the source; their conditions may differ.

How the values were obtained:
[1] = Stability in human serum (denaturing PAGE, densitometry); type: in vitro ADME; conditions: 2'-fluoropyrimidine AsiC
Method: Aliquots were removed at regular intervals and resuspended in gel loading buffer and stored at −80° C. before electrophoresis on denaturing PAGE gels. The average intensity (+S.E.M.) of bands from 2 independent experiments quantified by densitometry after staining is shown.
EpCAM-AsiC targeting GFP synthesized using 2′-fluoro-pyrimidines, chemically-stabilized 21-mer cholesterol-conjugated GFP-siRNAs (chol-siRNA), and unmodified 21-mer GFP-siRNA, each in 100 ul PBS, which were added to 100 μl of human or mouse serum. At regular intervals, 20 μL was removed, and resuspended in gel loading buffer and frozen at −80° C. before being electrophoresed on a denaturing PAGE gel. FIG. 30A depicts representative PAGE gels and FIG. 30B depicts graphs of the average intensity (+S.E.M.) of bands from two independent experiments analyzed by densitometry. Both the stabilized cholesterol-conjugated siRNA and the EpCAM-AsiC are stable over the 36 h of the experiment.

[2] = tested on: co-cultures of GFP− TNBC cells and GFP+ BPE cells; experiment: Co-culture of tumor cells with GFP+ BPE cells, relative survival by flow cytometry; type: cell-based, human
Method: To determine whether EpCAM-AsiCs specifically target EpCAM+ cells when mixed with EpCAM^dim non-transformed epithelial cells, we incubated co-cultures of GFP− TNBC cells and GFP+ BPE cells with PLK1 EpCAM-AsiCs or medium and used GFP fluorescence to measure their relative survival by flow cytometry 3 days later (FIG. 2D, 2E). […] Thus PLK1 EpCAM-AsiCs are selectively cytotoxic for EpCAM+ tumor cells when mixed with normal cells.
To understand whether EpCAM-AsiC can specifically target basal A and luminal breast cancer cells and inhibit proliferation we designed an EpCAM-AsiC targeting PLK1. PLK1 is a known trigger for […] transition. The effect of EpCAM-AsiC targeting PLK1 on cell proliferation was tested on 10 breast cancer cells representative of basal A, B and luminal cell lines. […] A correlation was seen between EpCAM expression levels and cell viability (FIG. 27B). To understand if EpCAM-AsiC will specifically target EpCAM+ cells in a mix cell population HCC1937 (EpCAM+GFP−) cell were co-cultured with BPE (EpCAM-GFP+) cells and treated with EpCAM-AsiC targeting PLK1 or untreated. […] The co-culture was repeated with other basal A cell lines (MB468 and HCC1143) similar reults were obtained. When BPE cells were grown in a co-culture with basal B cell (MB231) the ratio between BPE and MB231 cells stayed the same regardless of the EpCAM-AsiC treatment (66% BPE and 33% MB231 in untreated co-culture and 61% BPE and 38% MB231 following EpCAM-AsiC treatment) (FIG. 27C, 27D).

MB468-luc tumors = experiment: Tumor inhibition, EpCAM+ MB468-luc xenograft; type: in vivo, nude mice; conditions: for growth of EpCAM+ MB468 tumors: 5 mg/kg sc every 3 d (72 h) for 2 wks
Method: For tumor inhibition studies, MB468-luc (5×10^6) and MB231-luc-mCherry (5×10^5) cells trypsinized with Tryple Express (Invitrogen), resuspended in a 1:1 WIT-Matrigel solution and injected subcutaneously in the flank of 8-week old female Nu/J mice (Stock #002019, Jackson Laboratories). Tumors size was analyzed daily using the IVIS Spectra, after 5 days tumors were clearly visible. […] Mice were treated every 72 h for 14 days.

[3] = Serum stability, serum species not stated; type: in vitro ADME; conditions: 2'-fluoropyrimidine AsiC
[4] = tested on: eGFP expression in BPLER and BPE cells; experiment: eGFP knockdown in GFP-expressing BPLER and BPE cells; type: cell-based, human; conditions: AsiC 4 μM without lipid; siRNA 100 nM with Dharmafect; 72 hours
Method: FIG. 21A depicts the design of EpCAM-AsiC, containing an EpCAM aptamer and a PLK1 siRNA (sense strand disclosed as SEQ ID NO: 1 and antisense strand disclosed as SEQ ID NO: 2). […] EpCAM-AsiC targeting GFP was Alexa647 or Cy3 labeled at the 3′ end of the antisense siRNA strand and incubated with BPLER and BPE cells. Uptake was assessed 24 hours later by flow cytometry (FIG. 21C). Data are representative of 3 independent experiments. Cy3 and Alexa647-labeled EpCAM-AsiC was taken up by MB468 and BPLER (EpCAM+ cells) respectively and not by BPE (EpCAM−). MFI of each peak is shown (mock, gray). FIG. 21D depicts graphs of experiments in which, to test for gene silencing, BPLER and BPE were treated with EpCAM-AsiC targeting GFP (4 μM) and compared to Transfection controls using Dharmafect and GFP-siRNA (100 nM). Knockdown was assessed by flow cytometry 72 hours after incubation. Controls were mock and Dhrmafect only treatment (lipid). (n=4).
For uptake and silencing treatment, cells were plated at low density (10,000 cells/well in 96-well plates) and treated immediately. All AsiC and siRNA treatments were performed in either OptiMEM or WIT medium. Cell viability was assessed by CellTiter-Glo (Promega) or by Trypan-Blue staining in 96-well plates.
Cells were transfected with Dharmafect I per the manufacturer's protocol. See FIG. 9 for all siRNA sequences.

breast cancer cell lines = experiment: Colony formation assay; type: cell-based, human; conditions: AsiC 4 uM, paclitaxel 100 nM
Method: For colony formation assay, 1,000 viable cells were treated for 6 h in round bottom 96-well plates and then transferred to 10-cm plates in serum-containing medium. Medium was replaced every 3 d. After 8-14 d, cells were fixed in methanol (−20 C) and stained with crystal violet. For sphere formation assay, 1,000/ml viable cells were treated for 6 h in round bottom 96-well plates and then cultured in suspension in serum-free DMEM/F12 1:1 (Invitrogen), supplemented with EGF (20 ng/ml, BD Biosciences), B27 (1:50, Invitrogen), 0.4% bovine serum albumin (Sigma) and 4 μg/ml insulin (Sigma). Spheres were counted after 1 or 2 weeks.

[5] = tested on: CD44+CD24low/− and ALDH+ cells; experiment: Proportion of cells with T-IC phenotype; type: cell-based, human; conditions: basal-A and luminal lines; listed as PLK1 EpCAM-AsiCs
[6] = listed as EpCAM-AsiC targeting PLK1

B1: EpCAM-AsiC: EpCAM aptamer-siRNA chimera, siRNA cargo not specified at the place; 2'-fluoropyrimidines, 3'-dTdT (nucleic acid)
sense: GCGACUGGUUACCCGGUCGUUUUGAAGAAGAUCACCCUCCUUATT
antisense: UAAGGAGGGUGAUCUUCUUCATT
modifications: DNA at T, 2'-fluoro at CU, RNA at AG, backbone not given here; further chemistry not fully specified
notes: EpCAM aptamer-siRNA chimera, siRNA cargo not specified at the place; 2'-fluoropyrimidines, 3'-dTdT
Question: For B1, which “T1/2 in human serum” value [1] is on record?
Answer: > 36 h

Question: And the “decrease of the proportion of surviving tumor cells” value ([2]; BPE mixed with epithelial TNBC lines, after 3 d)?
Answer: 7 fold

Question: And the “injections until complete tumor regression” value (MB468-luc tumors; very aggressive TNBC xenograft model)?
Answer: 3 injections

Question: What about the “serum T1/2” value [3] of the same molecule?
Answer: > 72 h

Question: And the “eGFP knockdown, BPLER vs BPE” value [4]?
Answer: uniform and selective for EpCAM+ cells

B2: PLK1 EpCAM-AsiC: EpCAM aptamer linked by U-U-U to PLK1 siRNA sense strand (SEQ ID NO: 1), annealed to antisense strand (SEQ ID NO: 2) (nucleic acid)
sense: B1 sense
antisense: UAAGGAGGGUGAUCUUCUUCATT
modifications: DNA at T, 2'-fluoro at CU, RNA at AG, backbone not given here; EpCAM aptamer fused to sense strand
Question: Which “colony formation, EpCAM+ basal-A and luminal lines” value (breast cancer cell lines; [6]) does the source give for B2 here?
Answer: lost the ability to form colonies; also recorded: only eliminated colony formation in luminal (MCF7) and basal A (HCC1954) cells

Question: What about the “colony formation, EpCAM− basal-B lines” value (breast cancer cell lines; [6]) of the same molecule?
Answer: did not effect colony formation

Question: What about the “colony formation, EpCAM+ basal-A and luminal lines” value (breast cancer cell lines; listed as PLK1 EpCAM-AsiCs) of the same molecule?
Answer: more strongly inhibited colony and mammosphere formation of EpCAM+ basal-A TNBCs and luminal cell lines than paclitaxel; also recorded: eliminated mammosphere and colony formation; also recorded: more strongly inhibited colony and mammosphere formation of multiple EpCAM+ basal-like TNBCs and a luminal cell line than paclitaxel

Question: What about the “colony formation, EpCAM− basal-B lines” value (breast cancer cell lines; listed as PLK1 EpCAM-AsiCs) of the same molecule?
Answer: inactive against EpCAM− basal-B TNBCs

Question: And the “proportion of surviving EpCAM+ basal-A tumor cells” value ([2]; 3 days)?
Answer: greatly reduced the proportion of surviving EpCAM+ basal-A tumor cells

Question: And the “survival of an EpCAM− basal-B cell line in co-culture” value ([2]; 3 days)?
Answer: had no effect on survival of an EpCAM− basal-B cell line

Question: What about the “share of EpCAM− (BPE) cells in co-culture after treatment” value ([2]; HCC1937 + BPE, untreated 41% BPE) of the same molecule?
Answer: 83%

Question: What about the “share of EpCAM+ (HCC1937) cells in co-culture after treatment” value ([2]; HCC1937 + BPE, untreated 59% HCC1937) of the same molecule?
Answer: 17%

Question: And the “share of MB231 cells in co-culture after treatment” value ([2]; MB231 + BPE, untreated 33% MB231)?
Answer: 38%

Question: What about the “share of BPE cells in co-culture after treatment” value ([2]; MB231 + BPE, untreated 66% BPE) of the same molecule?
Answer: 61%

Question: What about the “time at which tumors completely disappeared in many mice” value (MB468-luc tumors; 5 mg/Kg every 72 h) of the same molecule?
Answer: 14 days

Question: And the “time of first tumor shrinkage” value (MB468-luc tumors; 5 mg/Kg every 72 h)?
Answer: 6 days

Question: What about the “growth of EpCAM+ MB468 tumors” value (MB468-luc tumors) of the same molecule?
Answer: regress only after treatment with PLK1 EpCAM-AsiC

Question: What about the “growth of EpCAM+ MB468 tumors” value (MB468-luc tumors; listed as PLK1-targeting AsiCs) of the same molecule?
Answer: rapidly completely regressed

Question: What about the “growth of EpCAM+ MB468 tumors” value (MB468-luc tumors; listed as PLK1 EpCAM-AsiCs) of the same molecule?
Answer: caused complete tumor regression of EpCAM+ TNBC xenografts

Question: And the “proportion of cells with T-IC phenotype” value [5]?
Answer: reduced the proportion of cells with the phenotype of T-ICs; also recorded: reduced CD44+CD24low and Aldefluor+ cells
